Legend:
[1] = target: SMYD2-L351A/W356A (human, UniProt Q9NRG4 1-433, L351A | W356A); assay: cell-based or functional assay
[2] = target: T1, Full-length human SMYD2 (residues 1-433), wild type (human, UniProt Q9NRG4 1-433); assay: ITC; NanoITC SV, 27°C, 25 mM Tris pH 7.5, 50 mM NaCl; 40 μM SMYD2 in the cell, 631 μM PARP1 peptide in the syringe, 16 injections of 15 μL; one-site, two-site and binding polynomial models; conditions: both partners purified
T1 construct: SMYD2, human, full length, residues 1-433; Tag cut off with yeast SUMO Protease 1, native N-terminus; Crystals held AdoHcy; also called SMYD2-WT; wild-type SMYD2; not shown: 6xHis-SUMO, N-terminal, cleaved
T1 sequence (Q9NRG4 whole entry, the tested form may be a part): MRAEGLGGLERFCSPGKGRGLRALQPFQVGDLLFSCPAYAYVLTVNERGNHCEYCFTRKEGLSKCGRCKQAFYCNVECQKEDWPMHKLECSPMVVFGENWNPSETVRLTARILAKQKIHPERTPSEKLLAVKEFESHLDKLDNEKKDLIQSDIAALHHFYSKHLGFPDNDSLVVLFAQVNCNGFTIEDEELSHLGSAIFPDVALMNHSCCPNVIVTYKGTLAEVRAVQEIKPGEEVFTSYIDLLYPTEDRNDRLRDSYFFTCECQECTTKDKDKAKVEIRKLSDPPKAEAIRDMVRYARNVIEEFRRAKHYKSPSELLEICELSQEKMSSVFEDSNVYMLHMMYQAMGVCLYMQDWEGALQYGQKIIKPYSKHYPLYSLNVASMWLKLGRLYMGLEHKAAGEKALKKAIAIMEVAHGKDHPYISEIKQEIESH

Chain of SMYD2-L351A/W356A (Q9NRG4 whole entry L351A/W356A, the tested form may be a part): as the sequence (Q9NRG4 whole entry, the tested form may be a part) above, with L351A, W356A counted along it

KM of steady-state methyltransferase kinetics (MTase-Glo) with the PARP1 peptide as substrate, against wild-type SMYD2 [1]: 4 fold | dH1 (binding polynomial) [2]: -1 kcal/mol | dH2 (binding polynomial) [2]: -1.72 kcal/mol | stoichiometry N [2]: 2
B1: PARP1 peptide (13-residue synthetic peptide, human PARP1 residues 522-534) (peptide)
peptide: RMKLTLKGGAAVD
notes: PARP1, human, residues 522-534, holds the target lysine Lys528; also called Lys528-containing PARP1 peptide; source: synthetic peptide (CPC Scientific)

— article doi:10.1101/2024.12.03.626679, “Structure of the SMYD2-PARP1 Complex Reveals Both Productive and Allosteric Modes of Peptide Binding” (bioRxiv, 2024)
